{
  "source": "patent US20130045219A1",
  "about": "(UCB, published 2013)",
  "binders": {"B1": {"name": "342 Fab′ (Fab, V domains shown)", "VH": "EVQLVESGGGLVQPGGSLRLSCAVSGFSSTNYHVHWVRQAPGKGLEWMGVIWGDGDTSYNSVLKSRFTISRDTSKNTVYLQMNSLRAEDTAVYYCARQLTHYYVLAAWGQGTLVTVSS", "VL": "DIQMTQSPSSLSASVGDRVTITCRASEDLYYNLAWYQRKPGKAPKLLIYDTYRLADGVPSRFSGSGSGTDYTLTISSLQPEDFASYYCQQYYKFPFTFGQGTKVEIKR"}, "B2": {"name": "soluble human CD154 protein (extracellular domain) (ligand)", "chain": "GDQNPQIAAHVISEASSKTTSVLQWAEKGYYTMSNNLVTLENGKQLTVKRQGLYYIYAQVTFCSNREASSQAPFIASLCLKSPGRFERILLRAANTHSSAKPCGQQSIHLGGVFELQPGASVFVNVTDPSQVSHGTGFTSFGLLKL", "notes": "also called sCD154; recombinant extracellular domain of human CD154"}, "B3": {"name": "humanized 342 Fab, graft gL4gH1 (Fab, V domains shown)", "VH": "B1 VH", "VL": "B1 VL"}},
  "key": {"Myc-tagged CD154": {"target": "T1, Myc-tagged CD154 (UniProt P29965 116-261, limits assumed)", "T1 construct": "Captured on the ELISA plate by anti-Myc antibody 9E10; The order of tag and CD154 is not known; also called CD40L; not shown: Myc tag", "T1 sequence (looked up)": "B2 chain", "assay": "ELISA: Myc-tagged CD154 captured on anti-Myc antibody 9E10, biotin 342 Fab' titrated, streptavidin-HRP detection (Example 14)", "procedure": "In this assay, anti-Myc antibody 9E10 was coated onto an ELISA plate. Myc-tagged CD154 was captured by this antibody. […] The plate was washed and the amount of biotinylated 5c8 Fab bound was determined using streptavidin HRP as a secondary. The signal was graphed and fit using a either a one site binding hyperbola or a two site binding hyperbola curve fit in Prism software (Graph Pad).\nA titration of biotin 5c8 Fab′ on CD154 to determine the appropriate concentration for cross-blocking analysis was also performed (FIG. 29B)."}, "[1]": {"target": "T2, CD154 expressed on D1.1 Jurkat cells (UniProt P29965 1-261, limits assumed)", "T2 construct": "whole, on cells; D1.1 is a human Jurkat subclone; also called CD154-expressing D1.1 cells; CD40L", "T2 sequence (looked up)": "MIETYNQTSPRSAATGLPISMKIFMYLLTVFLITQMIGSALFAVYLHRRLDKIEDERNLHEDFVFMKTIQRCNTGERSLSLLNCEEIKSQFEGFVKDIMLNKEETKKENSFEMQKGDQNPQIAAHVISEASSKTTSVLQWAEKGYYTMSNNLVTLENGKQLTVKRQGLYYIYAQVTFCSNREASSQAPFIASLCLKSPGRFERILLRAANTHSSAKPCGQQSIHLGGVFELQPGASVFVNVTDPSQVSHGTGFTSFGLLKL", "assay": "flow cytometry: inhibition of the binding of hCD40-mFc-PE to CD154-expressing D1.1 Jurkat cells by serially diluted antibody (Example 5)", "procedure": "A flow cytometry-based assay was used to assess the binding of labeled CD40 to CD154-expressing D1.1 cells. D1.1 Jurkat cells (American Type Culture Collection) were maintained in RPMI 1640 medium (Gibco, 31870-025)) containing 10% (v/v) fetal calf serum (FCS), 2 mM glutamine (Invitrogen, 23030024), 1 mM sodium pyruvate (Invitrogen, 11360-039), 1% (v/v) D-(+)-glucose (Sigma, G8769) & 10 mM HEPES (Sigma, H0887). At time of assay, 100,000 D1.1 cells were incubated in 100 μL RPMI 1640 medium+10% FCS, in the presence or absence of serially diluted anti-CD154 antibody for 15 minutes at room temperature. 5 μL of a 1:75 dilution of hCD40-mFc-PE (Alexis Corp, ANC-504-050) was then added and incubated for a further 30 minutes at room temperature. After washing twice in phosphate-buffered saline (PBS) containing 1% (w/v) bovine serum albumin (BSA fraction V, Serologicals Proteins Inc, 81-068-5) and 0.02% (w/v) sodium azide (BDH, 103692K), cells were resuspended in 200 μL PBS/1% BSA/0.02% sodium azide and flow cytometry performed on a Becton Dickinson FACScan. The values for geometric mean fluorescence (FL2) were assessed in all cases."}, "[2]": {"target": "T2, CD154 expressed on D1.1 Jurkat cells", "assay": "flow cytometry competition binding assay: serially diluted antibody against biotinylated 342 Fab on CD154-expressing D1.1 Jurkat cells, streptavidin-R-phycoerythrin detection (Example 6)", "procedure": "A flow cytometry-based assay was used to assess the binding of anti-CD154 antibody to CD154-expressing D1.1 cells. D1.1 Jurkat cells (American Type Culture Collection) were maintained in RPMI 1640 medium (Gibco, 31870-025) containing 10% (v/v) fetal calf serum (FCS), 2 mM glutamine (BioWhittaker, 17-605E) and […] (Mediatech, 30002107). […] The cells were washed three times in FACS buffer with centrifugation at 290×g for 3 minutes in between washes. A 1:500 dilution of streptavadin-R-phycoerythrin conjugate (Jackson Immunoresearch, 016-110-084) in […] FACS buffer was added and the cells were incubated for one hour at 4° C. The cells were washed once and fixed in PBS with 3% formaldehyde at room temperature for 10 minutes. The cells were resuspended in FACS buffer and run on a FacsCalibur (BD). The values for geometric mean fluorescence (FL2) were assessed in all cases."}, "CD40:sCD154 complex": {"target": "T3, CD40:sCD154 complex (human, UniProt P25942 21-193, limits assumed)", "T3 construct": "also called CD40:CD154 complex; not shown: human Fc (hFc)", "T3 sequence (P25942 21-193 limits assumed, one chain of several)": "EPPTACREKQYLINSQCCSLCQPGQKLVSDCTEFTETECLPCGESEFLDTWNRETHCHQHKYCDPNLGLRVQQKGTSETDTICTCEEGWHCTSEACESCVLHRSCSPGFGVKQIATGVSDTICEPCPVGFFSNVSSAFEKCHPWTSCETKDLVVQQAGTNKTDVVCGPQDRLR", "assay": "Biacore (SPR): CD40hFc captured, ECD bound, then buffer or Fab injected; concentration not given (Example 10)"}, "[3]": {"target": "B2", "assay": "Biacore (SPR): antibody or fragment captured on immobilized anti-human IgG (Fc- or Fab'-specific) F(ab')2, recombinant extracellular domain of human CD154 titrated over it (Example 4)", "procedure": "Catalogue Number: BR-1001-88, Biacore AB, Uppsala, Sweden. Buffer stored at 4° C. Immobilization buffer is Acetate 5.0 (being 10 mM sodium acetate pH 5.0). Catalogue number: BR-1003-51, Biacore AB, Uppsala, Sweden. Buffer stored at 4° C. Ligand capture: Affinipure F(ab′)₂ fragment goat anti-human IgG, Fab′ fragment specific (Catalogue number: 109-006-097) or Fc fragment specific (Catalogue number: 109-006-098), Jackson ImmunoResearch Inc (Pennsylvania, USA). Reagents stored at 4° C. […] Analyte: Recombinant extracellular domain of human CD154. Material was prepared at 2 mg/mL (40 μM) in phosphate-buffered saline, stored at 4° C., and diluted in HBE-EP running buffer for the assays. […] Regeneration Solution: 40 mM HCl prepared by dilution with distilled water from an 11.6 M stock solution (BDH, Poole, England. Catalogue number: 101254H). 5 mM NaOH prepared by dilution with distilled water from a 50 mM stock solution. Catalogue number: BR-1003-58, Biacore AB, Uppsala, Sweden. Assay Method: BIA (Biamolecular Interaction Analysis) was performed using a Biacore® 3000 (Biacore AB). Affinipure F(ab′)₂ fragment goat anti-human IgG, Fc- or Fab′-fragment specific (Jackson ImmunoResearch) were immobilized on a CM5 Sensor Chip via amine coupling chemistry to a capture level of ≈6000 response units (RUs). HBS-EP buffer (10 mM HEPES pH 7.4, 0.15 M NaCl, 3 mM EDTA, 0.005% Surfactant P20, Biacore AB) was used as the running buffer with a flow rate of 10 μl/min. Anti-CD154 antibodies or Fab fragments were used at concentrations such that, once captured by the immobilized anti-human IgG-Fc (or anti-human IgG Fab′) surface, gave a signal of ≈200 RUs. Human CD154 was titrated over the captured antibody, at various concentrations. 90 μL of CD154 was injected over the surface (association phase), followed by a 240 second dissociation phase, all at a flow rate of 30 μl/min. […] Background subtraction binding curves were analyzed using the BIAevaluation software (version 3.2) following standard procedures. Kinetic parameters were determined from the fitting algorithm."}, "[4]": {"target": "T2, CD154 expressed on D1.1 Jurkat cells", "assay": "cell-based or functional assay"}, "[5]": {"target": "T4, CD40hFc (human CD40 fusion protein) (human, UniProt P25942 21-193, limits assumed)", "T4 construct": "not shown: human Fc (hFc)", "T4 sequence (P25942 21-193 limits assumed)": "as the sequence (P25942 21-193 limits assumed, one chain of several) above", "assay": "Biacore (SPR), sequential injections: CD40hFc captured, then soluble CD154 (ECD); concentrations not given (Example 10)"}, "[6]": {"target": "B2", "assay": "Biacore; purified Fab captured on the chip, human CD154 extracellular domain as analyte"}},
  "data": [
    {"binder": "B1", "values": [
      {"measurement": "EC50 (read off the curve)", "setting": "Myc-tagged CD154", "result": "~0.1", "unit": "nM"},
      {"measurement": "IC50", "setting": "[1]", "result": 0.012, "unit": "µg/mL"},
      {"measurement": "IC50", "setting": "[2]", "result": 0.024, "unit": "nM"},
      {"measurement": "binding result", "setting": "CD40:sCD154 complex", "result": "no binding"},
      {"measurement": "Kd", "setting": "[3]", "result": 0.028, "unit": "nM"},
      {"measurement": "IC50 of inhibition of ICAM-1 (CD54) upregulation on CD40-expressing Ramos B cells co-cultured with CD154-expressing D1.1 Jurkat cells", "setting": "[4]", "result": 0.04, "unit": "µg/mL"}
    ]},
    {"binder": "B2", "values": [
      {"measurement": "binding result", "setting": "[5]", "result": "binds"}
    ]},
    {"binder": "B3", "values": [
      {"measurement": "Kd", "setting": "[6]", "result": 0.00455, "unit": "nM"},
      {"measurement": "koff", "setting": "[6]", "result": "6.97e-05", "unit": "s⁻¹"},
      {"measurement": "kon", "setting": "[6]", "result": "1.53e+07", "unit": "M⁻¹ s⁻¹"}
    ]}
  ]
}
